According to article PMC11154709, “4S-fluorination of ProB29 in insulin lispro slows fibril formation” (The Journal of Biological Chemistry, 2024):

Assay: Far-UV circular dichroism (secondary structure)
Format: physicochemical
Details: 60 μM; statement in discussion of CD spectra
Description: Figure 2 Biological activity and CD spectroscopy of lispro variants.A, lispros were injected subcutaneously into diabetic mice, and blood glucose was measured over time after injection. The data presented here represent the mean ± SD of 3 to 6 biological replicates. B–E, far-UV circular dichroism spectra (60 μM lispro in […] phosphate buffer, pH 8.0). […] 4R-F, 4R-fluoroproline; 4S-F, 4S-fluoroproline.
The secondary structure of each insulin lispro variant was probed by circular dichroism spectroscopy. […] All lispro samples were further analyzed by analytical ultracentrifugation (Fig. S3). To determine the dissociation constant of each variant, we fit the data to a reversible monomer-dimer equilibrium ([29]). […]
Circular dichroism spectroscopy:
Equilibrium measurements: The circular dichroism spectra of insulin or lispro samples (60 µM in
100 mM sodium phosphate, pH 8.0) were measured at 25°C in 1 mm quartz cuvettes using a step
size of 0.5 nm and averaging time of 1 s on an Aviv Model 430 Circular Dichroism
Spectrophotom eter. A reference buffer spectrum was subtracted from each sample spectrum. […]
Analytical ultracentrifugation: […]

## human insulin: 5.8 kDa peptide hormone composed of two disulfide-linked chains (A and B)
  oligomeric state at 60 μM: exists as a dimer at 60 μM
